The target of one assay is T1, Jo-1 (UniProt P12081 2-509).
T1 construct: Kit antigen
T1 sequence: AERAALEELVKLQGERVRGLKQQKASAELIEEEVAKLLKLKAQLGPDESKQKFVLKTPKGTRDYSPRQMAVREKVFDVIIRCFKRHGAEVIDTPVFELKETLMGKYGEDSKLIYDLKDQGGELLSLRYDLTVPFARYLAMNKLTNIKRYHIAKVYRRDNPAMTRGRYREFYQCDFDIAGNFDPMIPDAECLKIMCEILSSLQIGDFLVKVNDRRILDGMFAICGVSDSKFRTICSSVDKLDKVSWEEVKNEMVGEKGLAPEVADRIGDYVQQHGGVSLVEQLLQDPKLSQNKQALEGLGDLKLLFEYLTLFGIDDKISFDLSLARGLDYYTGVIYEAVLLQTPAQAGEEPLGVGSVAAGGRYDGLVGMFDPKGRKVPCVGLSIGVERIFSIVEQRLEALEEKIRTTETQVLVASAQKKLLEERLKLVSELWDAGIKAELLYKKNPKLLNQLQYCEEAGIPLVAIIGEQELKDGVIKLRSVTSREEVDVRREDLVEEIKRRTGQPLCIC
Briefly: Luminex AtheNA Multi-Lyte ANA-II Plus bead assay.

The next assay addresses T2, SS-B/La (UniProt P05455 1-408).
T2 construct: Kit antigen
T2 sequence: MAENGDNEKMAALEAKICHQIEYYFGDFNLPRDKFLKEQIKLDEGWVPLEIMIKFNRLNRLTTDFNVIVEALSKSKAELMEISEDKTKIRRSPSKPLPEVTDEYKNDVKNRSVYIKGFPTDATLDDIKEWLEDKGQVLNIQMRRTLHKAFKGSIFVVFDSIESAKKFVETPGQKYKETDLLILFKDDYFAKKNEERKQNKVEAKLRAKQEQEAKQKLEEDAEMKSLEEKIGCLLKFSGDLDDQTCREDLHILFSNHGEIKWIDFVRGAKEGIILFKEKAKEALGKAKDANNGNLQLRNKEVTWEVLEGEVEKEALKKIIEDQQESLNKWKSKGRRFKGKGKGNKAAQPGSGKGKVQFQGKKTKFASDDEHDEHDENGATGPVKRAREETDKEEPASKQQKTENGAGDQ
Briefly: Luminex AtheNA Multi-Lyte ANA-II Plus bead assay.

A further assay deals with T3, Scl 70 (UniProt P11387 2-765).
T3 construct: Kit antigen
T3 sequence: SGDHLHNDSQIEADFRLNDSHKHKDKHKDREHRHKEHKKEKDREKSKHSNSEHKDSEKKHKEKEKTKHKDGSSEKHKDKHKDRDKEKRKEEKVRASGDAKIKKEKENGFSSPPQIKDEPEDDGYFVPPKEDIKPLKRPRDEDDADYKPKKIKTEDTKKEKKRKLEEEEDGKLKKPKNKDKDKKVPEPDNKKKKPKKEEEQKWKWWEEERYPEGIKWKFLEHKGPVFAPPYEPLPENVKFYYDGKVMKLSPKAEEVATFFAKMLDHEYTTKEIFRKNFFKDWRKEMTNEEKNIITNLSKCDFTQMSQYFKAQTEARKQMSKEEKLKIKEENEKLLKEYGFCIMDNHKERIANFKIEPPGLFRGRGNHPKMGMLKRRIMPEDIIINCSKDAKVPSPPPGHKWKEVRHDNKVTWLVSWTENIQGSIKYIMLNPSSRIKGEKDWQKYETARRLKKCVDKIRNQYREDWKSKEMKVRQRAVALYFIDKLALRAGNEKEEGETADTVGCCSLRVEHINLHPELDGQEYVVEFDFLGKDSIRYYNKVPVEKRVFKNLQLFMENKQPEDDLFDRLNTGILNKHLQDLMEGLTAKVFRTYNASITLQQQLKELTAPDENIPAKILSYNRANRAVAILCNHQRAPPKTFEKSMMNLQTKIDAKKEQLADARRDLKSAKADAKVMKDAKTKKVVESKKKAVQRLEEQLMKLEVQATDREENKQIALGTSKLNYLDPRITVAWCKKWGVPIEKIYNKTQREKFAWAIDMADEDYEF
The experiment in a line: Luminex AtheNA Multi-Lyte ANA-II Plus bead assay.

In another assay the target is T4, centromere B (UniProt P07199 2-599).
T4 construct: Kit antigen
T4 sequence: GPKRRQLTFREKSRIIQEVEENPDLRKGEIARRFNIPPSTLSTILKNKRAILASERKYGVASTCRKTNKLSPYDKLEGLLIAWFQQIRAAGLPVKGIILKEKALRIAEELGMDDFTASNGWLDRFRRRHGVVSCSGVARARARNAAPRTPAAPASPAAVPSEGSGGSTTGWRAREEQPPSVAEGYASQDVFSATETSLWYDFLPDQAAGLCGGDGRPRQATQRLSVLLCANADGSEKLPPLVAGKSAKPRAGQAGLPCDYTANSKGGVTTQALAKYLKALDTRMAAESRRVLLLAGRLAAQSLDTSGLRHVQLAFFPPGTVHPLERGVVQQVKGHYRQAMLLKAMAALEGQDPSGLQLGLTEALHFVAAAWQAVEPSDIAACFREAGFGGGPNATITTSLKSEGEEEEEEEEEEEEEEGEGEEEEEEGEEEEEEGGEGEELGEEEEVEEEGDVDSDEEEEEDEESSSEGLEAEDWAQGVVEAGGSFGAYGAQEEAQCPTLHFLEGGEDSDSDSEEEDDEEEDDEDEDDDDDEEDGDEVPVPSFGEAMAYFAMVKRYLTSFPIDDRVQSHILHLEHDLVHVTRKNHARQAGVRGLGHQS
Briefly: Luminex AtheNA Multi-Lyte ANA-II Plus bead assay.

A further assay deals with T5, SARS-CoV-2 S2 domain (SARS-CoV-2, UniProt P0DTC2 686-1213).
T5 construct: domain: S2; also called the S2 domain
The experiment in a line: ELISA on SARS-CoV-2 subdomain proteins (FIG. 15A, FIG. 19A). (In general: ELISA stands for enzyme-linked immunosorbent assay.)

The target of a further assay is T6, SARS-CoV-2 NTD (SARS-CoV-2, UniProt P0DTC2 16-305).
T6 construct: domain: NTD; also called the NTD; N-terminal domain
Briefly: ELISA on RBD and NTD proteins (FIG. 15B, FIG. 19B).

A further assay deals with T7, SARS-CoV-2 S1 domain (SARS-CoV-2, UniProt P0DTC2 16-685).
T7 construct: domain: S1; also called the S1 domain
The experiment in a line: ELISA on SARS-CoV-2 subdomain proteins (FIG. 15A, FIG. 19A).

The values that follow come from US20230348571A1 (VANDERBILT UNIVERSITY, published 2023).

B1: 46472-1 (antibody, V domains shown)
VH: QVQLVQSGAEVKKDGSSVKVSCEASGGTFSDYAISWVRQAPGQGLEWMGRIIPILGITNYAQQFQTRVTITADKSTSAVYMELSSLRSKDTAIYYCAREVNYYSAFDDWGQGTQVTVSS
VL: EIVMTQSPDTLSVSPGERATLSCRASQNVSSNLAWYQQKPGQAPRLLIYDASTRATGIPARFSGSGSGTEFTLAISSLQSEDFAVYYCQQYNFWWTFGQGTKVDIK
As for B1, the binding result in the assay with Jo-1 is recorded as “no binding”; with SS-B/La it was “no binding”; with Scl 70, “no binding”; with centromere B it was “no binding”; in the assay with SARS-CoV-2 S2 domain, “binds”.

B2: 46472-2 (antibody, V domains shown)
VH: EVQLVQSGAEVKKPGESLRISCKGSGYRFITYWISWVRQMPGRGLEWMGKIDPSDSSTNYSPSFQGHVAISVDKSFNTAYLQWSRLNTSDTAMYYCAAGPTGYDLLTGQYFPYFNYWAQGTLVTVSS
VL: NFMLTQPHSVSESPGKTVSISCTRSSGSIASKFMQWYQQRPGSAPTILIYEDNLRPSGVPDRFSGSIDTSSNSALLTISGLKTEDEADYYCQSYHGSDVVFGGGTKLTVL
Regarding B2, the binding result is recorded as “no binding” in the assay with Jo-1; “no binding” with SS-B/La; “no binding” with Scl 70; “no binding” in the assay with centromere B; “binds” in the assay with SARS-CoV-2 S2 domain.

B3: 46472-6 (antibody, V domains shown)
VH: QLQLQESGPGLVKPSETLFLFCSVSGGSISISTHYWEWIRQPPGKGLEWIGSFYSSGTTYYNPSLKGRVTISADTSKSQISLKMSSVTAADTAVYYCARRPQYLLLSMTTGRRHHDFVMDVWGQGTTVTVSS
VL: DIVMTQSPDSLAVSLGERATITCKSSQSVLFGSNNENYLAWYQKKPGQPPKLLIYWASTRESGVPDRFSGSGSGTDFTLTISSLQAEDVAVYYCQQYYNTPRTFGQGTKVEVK
For the molecule B3, the binding result with SS-B/La is “no binding”; with Scl 70 it was “no binding”; with centromere B, “no binding”; with SARS-CoV-2 NTD it was “binds”; with SARS-CoV-2 S1 domain, “binds”.

B4: 46472-3 (antibody, V domains shown)
VH: QVQLVESGGGVVQPGRSLRLSCAASGFTFSVYPMHWVRQAPGRGLEWVAVISYDGSNQYYADSVRGRFTISRDNSKNTLYLHMNSLRPEDTAVFYCARDRSATYYGPFDYWGQGTLVTVSS
VL: SSELTQDPAVSVALGQTVRITCQGDSLRSYSASWYQQKPSQAPVLVIYANNNRPSGIPDRFSGSNSGNTASLTITGAQAEDEADYYCNSRDNSGNHPVIFGGGTTLTVL
With B4, the binding result is listed as “no binding” with Jo-1; “no binding” in the assay with SS-B/La; “no binding” with Scl 70; “no binding” with centromere B; “binds” in the assay with SARS-CoV-2 S2 domain.

B5: 46472-12 (antibody, V domains shown)
VH: QVQLVQSGAEVQKPGASVKVSCKASGYRFDIFDINWVRQASGQGPEWMGWMNPNSGNTGYAHKFQGRVTMTRDSSTNTAYMELSSLTFEDTAVYYCARDRVERTGNVGFGYYAMDVWGQGTTVIVSS
VL: DIQMTQSPSSLSASVGDRVTITCRASQSITNYLNWYQQRPGKAPRLLIYAASSLQSGVPSRFSGSGSGTDFTLTISSLQPEDFGTFYCQQTYSSPSYTFGQGTKLEMK
Take B5: the binding result in the assay with Jo-1 is “no binding”; with SS-B/La, “no binding”; with Scl 70 it was “no binding”; with centromere B it was “no binding”; in the assay with SARS-CoV-2 S1 domain it was “binds”.

B6: 46472-4 (antibody, V domains shown)
VH: EVPLLESGGGLVQPGGSLRLSCVASGFPFSSFALSWVRQAPGKGLEWVSTINTNGGTTYYLDSVKGRFTVSRDNSKNTLFLQMSSLRAEDTAIYYCAKDLLSHSGTYSAGSTFDYWGQGTLVIVSS
VL: DIQMTQSPSSLSASVGDRVTITCRASQSIGVYLNWYQQKPGKAPKLLIHATSNLQSGVPSRFSCSGSGTEFTLTISSLQPEDFATYYCQESYSTNTFGQGTKLEIK
As to B6, the binding result in the assay with Jo-1 is “no binding”; with SS-B/La, “no binding”; with Scl 70, “no binding”; in the assay with centromere B it was “no binding”; in the assay with SARS-CoV-2 S2 domain, “binds”.
